Reference: the nanobody polyreactivity screen of Harvey et al. (2022)

Assay: yeast display, Sf9 membrane polyspecificity reagent, FACS + sequencing; frameworks hold sequencing errors
Method in brief: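 Galactose-induced (36–48 hours) yeast carrying a synthetic nanobody display library were exposed to 10% biotinylated, detergent-solubilized Sf9 membrane reagent at 4 °C for 1 hour. FACS followed streptavidin microbead enrichment, using low and high (top ~1%) gates for expression (anti-HA) and reagent binding (streptavidin). Colony PCR, MiSeq 2 × 250 sequencing and CDR-length filtering followed. Labels for polyreactivity reflect the gate of origin.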

QVQLVESGGGLVQAGGSLRLSCAASGSTFKQYAMGWYRQAPGKERELVAAISRSGSRTYYADSVKGRFTISRDNAKNTVYLQMNSLIPEDTAVYYCAAERRSTAGWLYDYWGQGTQVTVSS
polyreactivity (PSR sort gate): high polyreactivity

QVQLVESGGRLVQAGGILRLSCAASGRIFAYYAMGWYRHSPGKERELVAAINWSGDGTNYADSVKGRFTISRDNEKNSVYLQMNSLKPEDTAVYYWNADWTSYGFGTRLDYWGQGTQVTVSS
polyreactivity (PSR sort gate): low polyreactivity

QFQLVDSGGGLVQAGGSLRLSCAATGSTQPGYAMGWYRQAPGKERELVAAITSRGGTTYYADSVKGRFTISCDNAKNTVYLQMNSLKPEDTAVYYCAPYTSYASDYWGQGTQVTVSS
polyreactivity (PSR sort gate): high polyreactivity

QVQLVESGGGLVQAGGSLRLSCAASGGTFVHNAMGWYRQAPGKERELVAAISWSGGSTYYADSVKGRFTISRDNAKNTVYLQMNSLKPEDTAVYYCAADLPDYKDIFDSWGQGTQVTVSS
polyreactivity (PSR sort gate): low polyreactivity

QVQLVESGGGLVQAGGSLRLSCAASGRIFGWYAMGWYRQAPGKERELVAAISNDGSTNYADSVKGRFTISRDNAKNTVYLQMNSLKPEDTAVYYCAARFYRSSYGWYGYWGQGTQVTVSS
polyreactivity (PSR sort gate): high polyreactivity

QVQLVESGGGLVQAGGSLRLSCAASGRTFRRYAKGWYRQAPGKERELVATIRSGDNTNYADSVKGRFTISRDNAKNTVYLQMNSLKPEDTAVYYCNRSPKSGQVTYLYSVNAHYDYWGQGTQVSVSS
polyreactivity (PSR sort gate): low polyreactivity

QDQLVESGGGLVQAGGSLRLSCAASGSITAPYAMGWYRQAPGKERELVAAISYSGGSTNYADSVKGRFTISRDNAKNTVYLQMNSRKPEATAVYYCAARGYSGYRTSPLARYDYWGKGTQVTVSS
polyreactivity (PSR sort gate): high polyreactivity

QVQLVDSGGGLVQAGGSLRLSFAASGSTFHTYAMGWYRQAPGTERELVATNTWDGGRTYYADSVKGRFTISRDIAKYTVYLQMNSLKPEDTAVYYCASVYWSIEMDYWGQGSQVTVSS
polyreactivity (PSR sort gate): low polyreactivity

QVQLVESGGGLVQAGGRLRLSCAASGRIFGYYAIGWYRQAPGKERELVARISRGGSTYYADSVKGRFTISRDNAKNTVYLQMNSLKPEETAVYSCAATRSGYTSYTDDSGGQGTQVTVSS
polyreactivity (PSR sort gate): high polyreactivity

QVQLVESGGGLVQAGGSLRLSCAASGSIFPVNAMGWSRQAPGKERELVATITWRGGRTYYADSVKGRFTISRDNAKNTVYLQMNSLKPEDTAVYYCAARLLYRHFGYWGQGTQVTVSS
polyreactivity (PSR sort gate): high polyreactivity

QVQHVESGGGLVQAGASLRLSCAASRRTFYRYAMGWSRQAPGKERELVAAISSGGSTNYADCVKGRFTISRDNAKNTVYLHMNRLKPEDTAVYYCAAETRLHRQDYDYWGQGTQVTVSS
polyreactivity (PSR sort gate): low polyreactivity

QVQLVESGGGLVQAGGSLRLSCGASGFIFVRYAMGWYRQAPGKERELVAAITKGGGRTYYADSVKGRFTISRDNAKNTVYLQMNSLKPEDTAVYYCATGGAHGRERDYGGQGTQVTVSS
polyreactivity (PSR sort gate): high polyreactivity

QVQIVESGGGLVQAGGSLRLSCAASGNTFPAYAMGWYRQAPGKERELVATISWSTGSTNYADSVKGRFTISRDNANNTVYLQMNSLKPEDTAVYYCNKRYPTDQMYYWGQGTLVTVSS
polyreactivity (PSR sort gate): low polyreactivity

QDQLVESGGGLVQAGGSLRLSCAASGITFQRYAMGGYRQAPGKERELVAVINFRGSNTFYADSVKGRFTISRDNAKNSVYLQMNSLIPEDTAVYYCAASYVIDIRGYGYWGQGTQVTVSS
polyreactivity (PSR sort gate): low polyreactivity

QVQLVESGGGLVQAGGSLRLSCADSGSIFLFNAMGWYRQAPGKERELVAAINRDDSTYYADSVKGRFTISRDNAKNTVYLQMNSLKPEDTAVYYCAAPVLHASYGYGYWGQGTQVTVSS
polyreactivity (PSR sort gate): low polyreactivity

QVQLVESGGGLVQAGGSLRLSCAASGFIFRRYVMGWYRQAPGKERELVAAISRGGSTYYADSVKGRFTISRDNAKNTVYLQMNSLKPEDTAVYYCNTPGGFVGDDYDYWGQGTQVTVSS
polyreactivity (PSR sort gate): high polyreactivity

QVQLVESGGGLVQAGGSLRLSCAASGRIFGHYAMGWYRQAPGKEMELVAAITIGGSTYYADSVKGRFTISRDNAKNTVYLQMNSLKPEDTAVYYCAKVGSNYRGRLGYWGQGTQVTVSS
polyreactivity (PSR sort gate): low polyreactivity
